Results taken from the supplement of paper PMC9112550, “Optimization of the antimicrobial peptide Bac7 by deep mutational scanning” (BMC Biology, 2022).

Test system: Escherichia coli TOP10
Assay: shrunken log2 fold change of peptide-encoding DNA abundance (4.5 h post-induction vs induction); higher = less antimicrobial activity (less host growth inhibition)
Conditions: time post-induction: 4.5 h; library: site-saturation at positions 5, 18, 19, 20
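Also: peptides expressed intracellularly from a pBAD plasmid library in pooled LB shake-flask culture, induced with 0.3% L-arabinose, DNA abundance read by NGS, three biological replicates, DESeq2 with apeglm shrinkage.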

Question: Which “shrunken log2 fold change” value does the source give for RRIRQRPPRLPRPRPRPTSQPRP here?
Answer: The value was -0.0461.

Question: Which “shrunken log2 fold change” value does the source give for RRIRQRPPRLPRPRPRPTSRPRP here?
Answer: Its value is -0.0729.

Question: How did the “shrunken log2 fold change” value turn out when RRIRQRPPRLPRPRPRPTVKPRP was run?
Answer: Its value is -0.096.

Question: How did the “shrunken log2 fold change” value turn out when RRIRQRPPRLPRPRPRPTVMPRP was run?
Answer: Its value is 0.0964.

Question: RRIRQRPPRLPRPRPRPTVWPRP was tested. Which “shrunken log2 fold change” value did it give?
Answer: Its value is 0.339.

Question: RRIRQRPPRLPRPRPRPTYWPRP was tested. Which “shrunken log2 fold change” value did it give?
Answer: The value was -0.247.

Question: With RRIRQRPPRLPRPRPRPVANPRP as the sequence, how does the “shrunken log2 fold change” value read?
Answer: Its value is 0.124.

Question: RRIRQRPPRLPRPRPRPVARPRP was tested. Which “shrunken log2 fold change” value did it give?
Answer: Its value is 0.0118.

Question: RRIRQRPPRLPRPRPRPVCKPRP was tested. Which “shrunken log2 fold change” value did it give?
Answer: The value was 0.0434.

Question: How did the “shrunken log2 fold change” value turn out when RRIRQRPPRLPRPRPRPVDAPRP was run?
Answer: Its value is -0.0176.

Question: How did the “shrunken log2 fold change” value turn out when RRIRQRPPRLPRPRPRPVEQPRP was run?
Answer: Its value is 0.0359.

Question: With RRIRQRPPRLPRPRPRPVETPRP as the sequence, how does the “shrunken log2 fold change” value read?
Answer: Its value is -0.00674.

Question: For RRIRQRPPRLPRPRPRPVFWPRP, which “shrunken log2 fold change” value is on record?
Answer: Its value is 0.113.

Question: How did the “shrunken log2 fold change” value turn out when RRIRQRPPRLPRPRPRPVGEPRP was run?
Answer: The value was 0.443.

Question: RRIRQRPPRLPRPRPRPVGHPRP was tested. Which “shrunken log2 fold change” value did it give?
Answer: The value was -0.0132.

Question: For RRIRQRPPRLPRPRPRPVHVPRP, which “shrunken log2 fold change” value is on record?
Answer: The value was -0.0167.

Question: With RRIRQRPPRLPRPRPRPVIEPRP as the sequence, how does the “shrunken log2 fold change” value read?
Answer: Its value is 0.162.

Question: Which “shrunken log2 fold change” value does the source give for RRIRQRPPRLPRPRPRPVINPRP here?
Answer: Its value is -0.102.

Question: For RRIRQRPPRLPRPRPRPVIWPRP, which “shrunken log2 fold change” value is on record?
Answer: The value was 0.124.

Question: Which “shrunken log2 fold change” value does the source give for RRIRQRPPRLPRPRPRPVKAPRP here?
Answer: Its value is 0.198.

Question: Which “shrunken log2 fold change” value does the source give for RRIRQRPPRLPRPRPRPVKLPRP here?
Answer: The value was -0.0467.

Question: For RRIRQRPPRLPRPRPRPVKVPRP, which “shrunken log2 fold change” value is on record?
Answer: Its value is -0.00987.

Question: How did the “shrunken log2 fold change” value turn out when RRIRQRPPRLPRPRPRPVLQPRP was run?
Answer: Its value is -0.107.

Question: With RRIRQRPPRLPRPRPRPVLVPRP as the sequence, how does the “shrunken log2 fold change” value read?
Answer: Its value is 0.328.

Question: With RRIRQRPPRLPRPRPRPVMMPRP as the sequence, how does the “shrunken log2 fold change” value read?
Answer: The value was -0.335.

Question: Which “shrunken log2 fold change” value does the source give for RRIRQRPPRLPRPRPRPVNYPRP here?
Answer: Its value is -0.00127.

Question: With RRIRQRPPRLPRPRPRPVPFPRP as the sequence, how does the “shrunken log2 fold change” value read?
Answer: The value was -0.374.

Question: Which “shrunken log2 fold change” value does the source give for RRIRQRPPRLPRPRPRPVPSPRP here?
Answer: Its value is -0.0282.

Question: How did the “shrunken log2 fold change” value turn out when RRIRQRPPRLPRPRPRPVQKPRP was run?
Answer: The value was 0.25.

Question: RRIRQRPPRLPRPRPRPVQNPRP was tested. Which “shrunken log2 fold change” value did it give?
Answer: The value was 0.0137.

Question: RRIRQRPPRLPRPRPRPVTMPRP was tested. Which “shrunken log2 fold change” value did it give?
Answer: The value was -0.0817.

Question: How did the “shrunken log2 fold change” value turn out when RRIRQRPPRLPRPRPRPVTNPRP was run?
Answer: Its value is 0.0368.

Question: Which “shrunken log2 fold change” value does the source give for RRIRQRPPRLPRPRPRPVVHPRP here?
Answer: Its value is -0.164.

Question: RRIRQRPPRLPRPRPRPVWCPRP was tested. Which “shrunken log2 fold change” value did it give?
Answer: The value was 0.0608.

Question: How did the “shrunken log2 fold change” value turn out when RRIRQRPPRLPRPRPRPVYAPRP was run?
Answer: The value was 0.16.

Question: With RRIRQRPPRLPRPRPRPWAYPRP as the sequence, how does the “shrunken log2 fold change” value read?
Answer: The value was -0.11.

Question: Which “shrunken log2 fold change” value does the source give for RRIRQRPPRLPRPRPRPWCVPRP here?
Answer: Its value is -0.115.

Question: With RRIRQRPPRLPRPRPRPWEAPRP as the sequence, how does the “shrunken log2 fold change” value read?
Answer: The value was -0.00204.

Question: For RRIRQRPPRLPRPRPRPWFAPRP, which “shrunken log2 fold change” value is on record?
Answer: The value was -0.16.

Question: For RRIRQRPPRLPRPRPRPWFWPRP, which “shrunken log2 fold change” value is on record?
Answer: Its value is 0.00186.

Question: For RRIRQRPPRLPRPRPRPWGCPRP, which “shrunken log2 fold change” value is on record?
Answer: The value was -0.122.

Question: With RRIRQRPPRLPRPRPRPWHEPRP as the sequence, how does the “shrunken log2 fold change” value read?
Answer: Its value is -0.00567.

Question: For RRIRQRPPRLPRPRPRPWIRPRP, which “shrunken log2 fold change” value is on record?
Answer: Its value is -0.166.

Question: For RRIRQRPPRLPRPRPRPWPKPRP, which “shrunken log2 fold change” value is on record?
Answer: Its value is 0.097.

Question: RRIRQRPPRLPRPRPRPWPVPRP was tested. Which “shrunken log2 fold change” value did it give?
Answer: Its value is 0.103.

Question: For RRIRQRPPRLPRPRPRPWPYPRP, which “shrunken log2 fold change” value is on record?
Answer: Its value is 0.0155.

Question: How did the “shrunken log2 fold change” value turn out when RRIRQRPPRLPRPRPRPWRKPRP was run?
Answer: Its value is -0.0153.

Question: For RRIRQRPPRLPRPRPRPWRMPRP, which “shrunken log2 fold change” value is on record?
Answer: The value was -0.421.

Question: RRIRQRPPRLPRPRPRPWRYPRP was tested. Which “shrunken log2 fold change” value did it give?
Answer: Its value is 0.0785.

Question: For RRIRQRPPRLPRPRPRPWVMPRP, which “shrunken log2 fold change” value is on record?
Answer: The value was -0.0363.

Question: RRIRQRPPRLPRPRPRPWVPPRP was tested. Which “shrunken log2 fold change” value did it give?
Answer: The value was -0.152.

Question: For RRIRQRPPRLPRPRPRPWWLPRP, which “shrunken log2 fold change” value is on record?
Answer: Its value is 0.27.

Question: RRIRQRPPRLPRPRPRPYAHPRP was tested. Which “shrunken log2 fold change” value did it give?
Answer: Its value is -0.249.

Question: Which “shrunken log2 fold change” value does the source give for RRIRQRPPRLPRPRPRPYAWPRP here?
Answer: Its value is -0.0963.

Question: RRIRQRPPRLPRPRPRPYCQPRP was tested. Which “shrunken log2 fold change” value did it give?
Answer: Its value is -0.0564.

Question: For RRIRQRPPRLPRPRPRPYDFPRP, which “shrunken log2 fold change” value is on record?
Answer: Its value is -0.543.

Question: With RRIRQRPPRLPRPRPRPYDKPRP as the sequence, how does the “shrunken log2 fold change” value read?
Answer: The value was -0.119.

Question: RRIRQRPPRLPRPRPRPYDMPRP was tested. Which “shrunken log2 fold change” value did it give?
Answer: Its value is -0.626.

Question: RRIRQRPPRLPRPRPRPYELPRP was tested. Which “shrunken log2 fold change” value did it give?
Answer: The value was -0.695.

Question: Which “shrunken log2 fold change” value does the source give for RRIRQRPPRLPRPRPRPYFIPRP here?
Answer: Its value is -1.23.

Question: For RRIRQRPPRLPRPRPRPYFNPRP, which “shrunken log2 fold change” value is on record?
Answer: The value was -0.82.

Question: Which “shrunken log2 fold change” value does the source give for RRIRQRPPRLPRPRPRPYGNPRP here?
Answer: Its value is -0.0235.

Question: RRIRQRPPRLPRPRPRPYHNPRP was tested. Which “shrunken log2 fold change” value did it give?
Answer: The value was -0.945.

Question: How did the “shrunken log2 fold change” value turn out when RRIRQRPPRLPRPRPRPYLIPRP was run?
Answer: Its value is -0.89.

Question: For RRIRQRPPRLPRPRPRPYMAPRP, which “shrunken log2 fold change” value is on record?
Answer: The value was -0.274.

Question: How did the “shrunken log2 fold change” value turn out when RRIRQRPPRLPRPRPRPYMYPRP was run?
Answer: Its value is -0.0364.

Question: How did the “shrunken log2 fold change” value turn out when RRIRQRPPRLPRPRPRPYNGPRP was run?
Answer: The value was -0.631.

Question: For RRIRQRPPRLPRPRPRPYNQPRP, which “shrunken log2 fold change” value is on record?
Answer: Its value is -0.536.

Question: RRIRQRPPRLPRPRPRPYNRPRP was tested. Which “shrunken log2 fold change” value did it give?
Answer: The value was -0.0882.

Question: With RRIRQRPPRLPRPRPRPYPKPRP as the sequence, how does the “shrunken log2 fold change” value read?
Answer: Its value is 0.00727.

Question: For RRIRQRPPRLPRPRPRPYPSPRP, which “shrunken log2 fold change” value is on record?
Answer: Its value is -0.161.

Question: With RRIRQRPPRLPRPRPRPYRIPRP as the sequence, how does the “shrunken log2 fold change” value read?
Answer: The value was -0.111.

Question: Which “shrunken log2 fold change” value does the source give for RRIRQRPPRLPRPRPRPYRVPRP here?
Answer: Its value is -0.00926.

Question: RRIRQRPPRLPRPRPRPYSSPRP was tested. Which “shrunken log2 fold change” value did it give?
Answer: Its value is -0.751.

Question: For RRIRQRPPRLPRPRPRPYWYPRP, which “shrunken log2 fold change” value is on record?
Answer: Its value is -0.0759.
